Assay results reported in patent US20230414590.

Target: T1, iron-sulfur cluster assembly (ISCU) protein, Q9H1K1
T1 chain: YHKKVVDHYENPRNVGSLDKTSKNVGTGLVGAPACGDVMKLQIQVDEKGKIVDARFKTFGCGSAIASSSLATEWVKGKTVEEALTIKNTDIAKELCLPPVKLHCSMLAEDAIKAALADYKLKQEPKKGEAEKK

B1: glutathione S-transferase P (GSTP1) (protein)
chain: PPYTVVYFPVRGRCAALRMLLADQGQSWKEEVVTVETWQEGSLKASCLYGQLPKFQDGDLTLYQSNTILRHLGRTLGLYGKDQQEAALVDMVNDGVEDLRCKYISLIYTNYEAGKDDYVKALPGQLKPFETLLSQNQGGKTFIVGDQISFADYNLLDLLLIHEVLAPGCLDAFPLLSAYVGRLSARPKLKAFLASPEYVNLPINGNGKQ
For B1, the “ISCU glutathionylation (α-GSH immunoblot after α-ISCU immunoprecipitation) in PAECs with GSTP1 knockdown” value was “with GSTP1 knockdown, α-ISCU immunoprecipitation revealed a concomitant reduction of GSTP1 pulldown and glutathionylated ISCU in favor of non-glutathionylated ISCU”.
